Data taken from patent publication US20250195679A1 (SHANGHAI HUAOTA BIOPHARMACEUTICAL, published 2025).

T1: human CD73 protein (ACRO Biosystems, Cat. No. CD3-H52H7) (human, UniProt P21589 27-547)
T1 construct: Bought protein; also called recombinant CD73 protein; soluble recombinant CD73 antigen protein
T1 sequence (looked up): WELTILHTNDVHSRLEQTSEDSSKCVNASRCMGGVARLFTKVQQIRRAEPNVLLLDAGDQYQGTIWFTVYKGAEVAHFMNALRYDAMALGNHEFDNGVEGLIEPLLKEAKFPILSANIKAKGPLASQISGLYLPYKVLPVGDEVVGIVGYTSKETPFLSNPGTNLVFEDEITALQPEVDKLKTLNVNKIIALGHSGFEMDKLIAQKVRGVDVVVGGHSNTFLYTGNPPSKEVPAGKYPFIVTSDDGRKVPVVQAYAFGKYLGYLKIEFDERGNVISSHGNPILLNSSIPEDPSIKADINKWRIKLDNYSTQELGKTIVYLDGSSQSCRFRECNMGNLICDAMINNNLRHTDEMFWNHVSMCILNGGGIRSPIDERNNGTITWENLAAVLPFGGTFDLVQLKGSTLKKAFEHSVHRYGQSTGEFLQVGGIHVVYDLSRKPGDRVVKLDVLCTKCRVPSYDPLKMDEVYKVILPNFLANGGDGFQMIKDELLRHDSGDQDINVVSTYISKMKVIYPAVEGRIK

T2: CD73 on the surface of Calu6 cells (UniProt P21589 27-549)
T2 sequence (looked up): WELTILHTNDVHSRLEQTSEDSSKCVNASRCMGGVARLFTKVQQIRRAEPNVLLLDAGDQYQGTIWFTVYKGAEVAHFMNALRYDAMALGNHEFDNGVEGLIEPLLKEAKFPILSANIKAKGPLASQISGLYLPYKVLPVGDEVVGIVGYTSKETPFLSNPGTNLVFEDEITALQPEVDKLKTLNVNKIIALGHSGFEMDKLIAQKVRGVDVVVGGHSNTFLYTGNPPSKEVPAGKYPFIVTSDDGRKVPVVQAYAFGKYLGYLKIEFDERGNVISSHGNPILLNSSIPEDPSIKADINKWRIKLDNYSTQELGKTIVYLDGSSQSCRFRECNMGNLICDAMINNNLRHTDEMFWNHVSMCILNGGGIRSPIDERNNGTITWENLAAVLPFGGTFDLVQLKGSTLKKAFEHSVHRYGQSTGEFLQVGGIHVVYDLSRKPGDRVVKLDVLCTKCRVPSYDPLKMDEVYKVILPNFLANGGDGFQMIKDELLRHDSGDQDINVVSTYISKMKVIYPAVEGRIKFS

T3: human CD73 expressed on CHOK1-huCD73-3F4 cells (human, UniProt P21589 27-549)
T3 construct: whole, on cells; also called cells expressing human CD73 (CHOK1-huCD73-3F4, Huabo Biopharm); CD73 antigen on the cell surface
T3 sequence (looked up): T2 sequence (looked up)

B1: 900698 antibody (antibody, V domains shown)
VH: QVQLVESGGGLVKPGGSLRLSCAASGFTFSKYAMSWIRQAPGKGLEWVAEISSGGGYINYADSVKGRFTISRDNAKNSLYLQMNSLRAEDTAVYYCARAIYYYGSSYNYYAMDYWGQGTTVTVSS
VL: DIQMTQSPSSLSASVGDRVTITCRASQDVGTAEAWYQQKPGKAPKLLIYWASTRHTGVPSRFSGSGSGTDFTLTISSLQPEDFATYYCQQYSSYPLTFGQGTKLEIK
notes: embodiments say they may derive from human IgG1 and human Ig kappa; It was detected with anti-human Fc and captured on protein A; also called 900698 naked antibody; naked antibody 900698
B2: CD73 antibody-Mc-VC-PAB-DMEDA-PEG-SN38 (antibody, V domains shown)
VH: B1 VH
VL: B1 VL
modifications: SN-38 conjugated through Mc-VC-PAB-DMEDA-PEG linker by cysteine conjugation; DAR about 7.8 for the whole antibody; conjugated cysteines not named
notes: the constant regions that carry the conjugated cysteines are not; also called antibody-drug conjugate 1
B3: CD73 antibody-MP2-VC-PAB-DMEDA-PEG-SN38 (antibody, V domains shown)
VH: B1 VH
VL: B1 VL
modifications: SN-38 conjugated through MP2-VC-PAB-DMEDA-PEG linker by cysteine conjugation; DAR about 7.8 for the whole antibody; conjugated cysteines not named
notes: the constant regions that carry the conjugated cysteines are not; also called antibody-drug conjugate 2
B4: BMS-986179 (antibody, human IgG1, kappa, L234A L235A, V domains shown)
VH: QVQLVESGGGVVQPGRSLRLSCAASGFTFSNYGMHWVRQAPGKGLEWVAVILYDGSNKYYPDSVKGRFTISRDNSKNTLYLQMNSLRAEDTAVYYCARGGSSWYPDSFDIWGQGTMVTVSS
VL: DIQMTQSPSSLSASVGDRVTITCRASQGISSWLAWYQQKPEKAPKSLIYAASSLQSGVPSRFSGSGSGTDFTLTISSLQPEDFATYYCQQYNSYPLTFGGGTKVEIKR
notes: also called CD73 positive control antibody BMS-986179
B5: 900725 antibody (antibody, V domains shown)
VH: QVQLVQSGAEVKKPGASVKLSCKASGYTFTSYWIHWVRQAPGQGLEWIGMIHPNSGSTYYNEKFKGRATLTVDKSTSTAYMELSSLRSEDTAVYYCARYYGSDYEWYFDVWGQGTTVTVSS
VL: DIQMTQSPSSMSASVGDRVTITCKASQNVRTAVVWYQQKPGKAPKALIYLASNRHTGVPDRFSGSGSGTDFTLTISSLQPEDFATYFCLQHWNYPYTFGQGTKLEIK
notes: It was detected with anti-human IgG Fc; also called anti-CD73 antibody 900725

What follows are binders tested against T1, human CD73 protein (ACRO Biosystems, …) (assay: SPR (Biacore T200), antibody captured on protein A chip, CD73 as analyte, 1:1 model).
Experimental: (§1) The binding kinetics of the antibody-drug conjugate 1 and the antibody-drug conjugate 2 prepared in Example 1 and the 900698 naked antibody with a human CD73 protein (manufacturer: ACRO Biosystems, Cat. No. CD3-H52H7) and a monkey CD73 protein (manufacturer: Novoprotein, Cat. No. CI21) were assayed using Biacore (GE, model: T200), with an assay buffer of HBS-EP+ (pH 7.4) and a protein A chip (manufacturer: GE, Cat. No. 29-1275-56).
(§2) The temperature for the sample compartment and the flow path was set to 25° C. The protein A chip captured each antigen-binding protein as a ligand, fixing about 100 RU. The human CD73 protein was diluted with the assay buffer to a series of concentrations of 50 nM, 25 nM, 12.5 nM, 6.25 nM, 3.12 nM, and 1.57 nM, serving as analytes, and the assay buffer was used as a 0 concentration control. At a flow rate of 30 μL/min, association was conducted for 120 s, and dissociation was conducted for 600 s. Glycine (10 mM, pH 1.5) was used for regeneration at a flow rate of 50 μL/min for 60 s in a multi-cycle kinetic assay. A 1:1 binding model was used, and the Fit Local mode was selected to determine the association rate constant (ka), dissociation rate constant (kd), and equilibrium dissociation constant (KD).

Row | Binder | Kd | koff | kon
1 | B1 | 711 pM | 0.000104 s⁻¹ | 147000 M⁻¹ s⁻¹
2 | B2 | 339 pM | 0.000129 s⁻¹ | 381000 M⁻¹ s⁻¹
3 | B3 | 354 pM | 0.000228 s⁻¹ | 643000 M⁻¹ s⁻¹

Each binder was assayed against T4, monkey CD73 protein (Novoprotein, Cat. No. CI21) (monkey) in the same assay as above.
T4 construct: Bought protein
Experimental: as §1, §2

Row | Binder | Kd | koff | kon
4 | B1 | 121 pM | 1.8e-05 s⁻¹ | 148000 M⁻¹ s⁻¹
5 | B2 | 34.9 pM | 1.92e-06 s⁻¹ | 55000 M⁻¹ s⁻¹
6 | B3 | 252 pM | 0.000114 s⁻¹ | 454000 M⁻¹ s⁻¹

These binders were tested against T1, human CD73 protein (ACRO Biosystems, …) (assay: cell-based or functional assay).

Row | Binder | IC50, inhibition of the enzymatic activity of recombinant CD73 (AMP/ATP, CellTiter-Glo signal)
7 | B1 | 0.352 µg/mL
8 | B2 | 0.587 µg/mL
9 | B3 | 0.553 µg/mL

The binders below were run against T2, CD73 on the surface of Calu6 cells (assay: cell-based or functional assay).

Row | Binder | Endocytosis efficiency (%)
10 | B1 | 95.4%
11 | B2 | 95.6%
12 | B3 | 95.8%

The binders below were run against T3, human CD73 expressed on … (assay: flow cytometry (PE-MFI, PE-goat anti-human-Fc) on CHOK1-huCD73-3F4 cells expressing human CD73; four-parameter fit table under the curves, unit from the concentration axis).
Experimental: The binding activity of the antibody-drug conjugate 1 and the antibody-drug conjugate 2 prepared in Example 1 and the 900698 naked antibody to cells expressing human CD73 (CHOK1-huCD73-3F4, Huabo Biopharm) was assayed.
All antigen-binding proteins were diluted to 30 μg/mL with a solution of 1% BSA in PBS (1% BSA/PBS), followed by a 3-fold dilution across 10 gradients. The diluted proteins were each added at 20 μL per well to a 96-well U-bottom plate, with a negative control (adding only 1% BSA/PBS) set up simultaneously. A suspension of cells expressing human CD73 (CHOK1-huCD73-3F4, Huabo Biopharm) in the logarithmic growth phase was taken and centrifuged (1000 rpm×5 min), and then the culture medium was discarded. The cells were resuspended in 1% BSA/PBS until the viable cell density was 1×10⁶ cells/mL, then added at 20 μL (2×10⁴ cells) per well to the 96-well U-bottom plate containing the anti-CD73 antigen-binding proteins, and incubated at room temperature for reaction for 30 min. The reacted cells in the 96-well U-bottom plate were resuspended in 1% BSA/PBS and centrifuged (300 g×3 min), and then the supernatant was discarded. This washing process was performed once. Then, a 1:200 dilution of PE-goat anti-human-Fc (Jackson ImmunoResearch, #109-115-098) was added, and the cells were incubated in the dark at room temperature for reaction for 15 min. The reacted cells in the 96-well U-bottom plate were further resuspended in 1% BSA/PBS and centrifuged (300 g×3 min), and then the supernatant was discarded. This washing process was performed 3 times. Finally, the cells were resuspended in 100 μL of 1% BSA/PBS per well, and the fluorescence intensity in the PE channel was detected using a flow cytometer (BD, #Canto II).

Row | Binder | EC50
13 | B1 | 1.01 µg/mL
14 | B2 | 0.659 µg/mL
15 | B3 | 0.67 µg/mL

Each binder was assayed against T2, CD73 on the surface of Calu6 cells (assay: flow cytometry on Calu6 cells, antibody at 1 ug/mL, kept at 4 C, PE anti-human IgG Fc detection).
Experimental: The endocytosis efficiency of monoclonal antibodies 900698 and 900725 was compared through an endocytosis assay, with the procedures as follows: Anti-CD73 antigen-binding proteins such as the CD73 positive control antibody BMS-986179, 900698, and 900725 were diluted to 1 μg/mL with a PBS solution, with 2 replicate wells set up for each concentration. Calu6 cells in the logarithmic growth phase were taken and prepared into a cell suspension at 2× 10⁵ cells/mL. The cell suspension was then added at 100 μL (about 20000 cells) per well to a 96-well U-bottom plate and centrifuged at 300 g for 3 min, and then the supernatant was discarded. Then, the diluted antigen-binding proteins were each added at 100 μL/well to resuspend the cells, and the mixture was mixed uniformly and incubated at 4° C. for 30 min. After the incubation was completed, the mixture was centrifuged at 300 g for 3 min, and then the supernatant was discarded. The cells were then resuspended in 1% BSA, with half incubated at 37° C. and the other half at 4° C., for an incubation time of 5 h. After the incubation was completed, the wells corresponding to the specified time were removed. The cells in these wells were centrifuged at 300 g for 3 min, and then the supernatant was discarded. PE anti-hulgG Fc (1:200) was then added at 50 μL/well, and the mixture was mixed uniformly and allowed to react at 4° C. for 30 min. After the incubation was completed, the cells were washed twice and centrifuged at 300 g for 3 min, and the fluorescence intensity was detected by flow cytometry. The assay results for the endocytosis of CD73 on the cell surface induced by the anti-CD73 antigen-binding proteins are shown in Table 5 below and FIG. 9. […] 34%. In FIG. 9, the results for BMS-986179, 900725, and 900698 are represented as 1-3, respectively, and NC indicates the result for the condition that only a 1% BSA solution was added without any antibody or antibody-drug conjugate.

Row | Binder | fluorescence intensity at 4° C.
16 | B1 | 8940
17 | B4 | 25700
18 | B5 | 13900

Molecular target: T2, CD73 on the surface of Calu6 cells
Test: cell-based or functional assay
Remark: another data set of the same source

Row | Binder | Endocytosis efficiency (%) | fluorescence intensity of surface antibody after 5 h at 37° C. (flow cytometry, Calu6 cells)
19 | B1 | 96.3% | 359
20 | B4 | 44.2% | 14400
21 | B5 | 37.5% | 8710
